Results reported in patent publication US12404345B2, “Humanized antibodies against iRHOM2” (SCIRHOM GMBH, priority 2021, dated 2025).

Biological target: T1, human iRhom2 (Homo sapiens, UniProt Q6PJF5)
T1 construct: MEF-DKO-hiR2-FL-WT-T7 cells stably expressing human iRhom2 full length wild type; expressed in transfected cells; host or cells: immortalized iRhom1/2-/- double knockout mouse embryonic fibroblasts, pMSCV retroviral infection
T1 sequence (Q6PJF5 1-856): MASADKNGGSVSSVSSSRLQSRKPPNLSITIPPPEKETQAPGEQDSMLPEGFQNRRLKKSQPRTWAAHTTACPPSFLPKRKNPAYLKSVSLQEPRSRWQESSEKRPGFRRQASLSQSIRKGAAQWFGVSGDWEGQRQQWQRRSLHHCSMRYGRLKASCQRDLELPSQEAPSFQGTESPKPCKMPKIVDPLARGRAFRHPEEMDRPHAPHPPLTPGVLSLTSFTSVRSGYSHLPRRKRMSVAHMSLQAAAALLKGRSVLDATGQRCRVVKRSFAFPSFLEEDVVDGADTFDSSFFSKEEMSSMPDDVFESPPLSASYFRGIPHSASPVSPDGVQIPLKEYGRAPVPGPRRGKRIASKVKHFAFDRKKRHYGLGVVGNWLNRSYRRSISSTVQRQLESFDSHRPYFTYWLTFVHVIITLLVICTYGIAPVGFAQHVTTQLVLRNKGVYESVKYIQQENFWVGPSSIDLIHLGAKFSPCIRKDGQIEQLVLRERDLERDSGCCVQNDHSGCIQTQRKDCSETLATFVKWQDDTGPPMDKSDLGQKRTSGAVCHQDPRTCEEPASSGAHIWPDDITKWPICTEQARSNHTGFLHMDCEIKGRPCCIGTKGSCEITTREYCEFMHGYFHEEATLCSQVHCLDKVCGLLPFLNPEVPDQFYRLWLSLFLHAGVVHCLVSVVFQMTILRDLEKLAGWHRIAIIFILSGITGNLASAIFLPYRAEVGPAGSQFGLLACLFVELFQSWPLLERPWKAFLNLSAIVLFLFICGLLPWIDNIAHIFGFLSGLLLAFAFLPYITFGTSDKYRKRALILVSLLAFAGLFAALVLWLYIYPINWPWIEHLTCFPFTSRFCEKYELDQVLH
Assay: FACS binding to MEF-DKO-hiR2-FL-WT-T7 cells
Settings: antibody at 3 μg/ml
Excerpt: Next, immortalized iRhom1/2−/− DKO MEFs were reconstituted with a tagged form of human iRhom2 to test target recognition of humanized antibodies of the invention. Additionally, iRhom1/2−/− DKO MEFs stably expressing a tagged form of mouse iRhom2 were generated in order to determine cross-reactivity of the humanized antibodies 16-B-03, 16-B-05, 16-B-07, 23-B-04, 42-B-02 and 42-B-04 of the invention with the mouse orthologue of iRhom2.
In brief, on day 1, Phoenix-ECO cells (American Type Culture Collection, USA) were seeded on 6-well tissue culture plates (Greiner, Germany) in standard growth medium at 8×10^5 cells per well and kept overnight at 37° C., 5% CO2. On day 2, the medium was replaced by fresh medium supplemented with chloroquine (Sigma-Aldrich, USA) at a final concentration of 25 μM. Applying the calcium phosphate method, cells were transfected with 2 μg/ml of pMSCV (Clontech, USA) empty vector, pMSCV-hiR2-FL-WT-T7 encoding human iRhom2 full length wild type C-terminally tagged with 3 consecutive copies of the T7 epitope (MASMTGGQQMG) or pMSCV-miR2-FL-WT-T7 encoding mouse iRhom2 full length wild type C-terminally tagged with 3 consecutive copies of the T7 epitope, and were kept at 37° C., 5% CO2. […]

binding to the human iRhom2 variant on MEF-DKO-hiR2-FL-WT-T7 cells: strong binding
B1: 16-B-03: humanized antibody binding human iRhom2; HCVD SEQ ID NO 1, LCVD SEQ ID NO 5 (antibody, V domains shown)
VH: QVTLRESGPALVKPTQTLTLTCTFSGFSLSTFALGVGWIRQPPGKALEWLAHIWWDDDKYYNPALKSRLTISKDTSKNQVVLTITNMDPVDTATYYCARITTYYYGMDYWGQGTLVTVSS
VL: EIVMTQSPDFQSVTPKEKVTITCRASQSIGNHLHWYQQKPDASPKLLIKYASQSISGVPSRFSGSGSGTDFTLTINSLEAEDAATYFCQQSYQWPLTFGQGTKLEIK
modifications: antibody sequences
